According to patent US20210054097A1 (Novo Nordisk, published 2021):
Ends that are not written are not given here.

Assays:
Experiment in all cases: peptide ELISA
[1] = molecular target: T1, FX activation peptide 12-mer SVAQATSSSGEA (human)
T1 peptide: SVAQATSSSGEA-biotin
How it was run: (§1)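 Nanobodies (FLAG-tagged) or IgG antibodies, 2 μg/mL, incubated 1 h on C-terminally biotinylated peptide captured via streptavidin, washing buffer pH 8.60 containing CaCl₂ and Tween 20. Read-out: HRP-conjugated secondary antibody with TMB colour development.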

[2] = molecular target: T2, FX activation peptide 12-mer VAQATSSSGEAP (human)
T2 peptide: VAQATSSSGEAP-biotin
How it was run: as §1

[3] = molecular target: T3, FX activation peptide 12-mer AQATSSSGEAPD (human)
T3 peptide: AQATSSSGEAPD-biotin
How it was run: as §1

[4] = molecular target: T4, FX activation peptide 12-mer QATSSSGEAPDS (human)
T4 peptide: QATSSSGEAPDS-biotin
How it was run: as §1

[5] = molecular target: T5, FX activation peptide 12-mer ATSSSGEAPDSI (human)
T5 peptide: ATSSSGEAPDSI-biotin
How it was run: as §1

[6] = molecular target: T6, FX activation peptide 12-mer SSGEAPDSITWK (human)
T6 peptide: SSGEAPDSITWK-biotin
How it was run: as §1

[7] = molecular target: T7, FX activation peptide 12-mer SGEAPDSITWKP (human)
T7 peptide: SGEAPDSITWKP-biotin
How it was run: as §1

[8] = molecular target: T8, FX activation peptide 12-mer GEAPDSITWKPY (human)
T8 peptide: GEAPDSITWKPY-biotin
How it was run: as §1

[9] = molecular target: T9, FX activation peptide 12-mer EAPDSITWKPYD (human)
T9 peptide: EAPDSITWKPYD-biotin
How it was run: as §1

[10] = molecular target: T10, FX activation peptide 12-mer APDSITWKPYDA (human)
T10 peptide: APDSITWKPYDA-biotin
How it was run: as §1

[11] = molecular target: T11, FX activation peptide 12-mer DSITWKPYDAAD (human)
T11 peptide: DSITWKPYDAAD-biotin
How it was run: as §1

[12] = molecular target: T12, FX activation peptide 12-mer SITWKPYDAADL (human)
T12 peptide: SITWKPYDAADL-biotin
How it was run: as §1

[13] = molecular target: T13, FX activation peptide 12-mer ITWKPYDAADLD (human)
T13 peptide: ITWKPYDAADLD-biotin
How it was run: as §1

[14] = molecular target: T14, FX activation peptide 12-mer WKPYDAADLDPT (human)
T14 peptide: WKPYDAADLDPT-biotin
How it was run: as §1

[15] = molecular target: T15, FX activation peptide 12-mer PYDAADLDPTEN (human)
T15 peptide: PYDAADLDPTEN-biotin
How it was run: as §1

[16] = molecular target: T16, FX activation peptide 12-mer YDAADLDPTENP (human)
T16 peptide: YDAADLDPTENP-biotin
How it was run: as §1

[17] = molecular target: T17, FX activation peptide 12-mer DAADLDPTENPF (human)
T17 peptide: DAADLDPTENPF-biotin
How it was run: as §1

[18] = molecular target: T18, FX activation peptide 12-mer AADLDPTENPFD (human)
T18 peptide: AADLDPTENPFD-biotin
How it was run: as §1

[19] = molecular target: T19, FX activation peptide 12-mer ADLDPTENPFDL (human)
T19 peptide: ADLDPTENPFDL-biotin
How it was run: as §1

[20] = molecular target: T20, FX activation peptide 12-mer DLDPTENPFDLL (human)
T20 peptide: DLDPTENPFDLL-biotin
How it was run: as §1

[21] = molecular target: T21, FX activation peptide 12-mer LDPTENPFDLLD (human)
T21 peptide: LDPTENPFDLLD-biotin
How it was run: as §1

[22] = molecular target: T22, FX activation peptide 12-mer TENPFDLLDFNQ (human)
T22 peptide: TENPFDLLDFNQ-biotin
How it was run: as §1

[23] = molecular target: T23, FX activation peptide 12-mer ENPFDLLDFNQT (human)
T23 peptide: ENPFDLLDFNQT-biotin
How it was run: as §1

[24] = molecular target: T24, FX activation peptide 12-mer NPFDLLDFNQTQ (human)
T24 peptide: NPFDLLDFNQTQ-biotin
How it was run: as §1

[25] = molecular target: T25, FX activation peptide 12-mer FDLLDFNQTQPE (human)
T25 peptide: FDLLDFNQTQPE-biotin
How it was run: as §1

[26] = molecular target: T26, FX activation peptide 12-mer DLLDFNQTQPER (human)
T26 peptide: DLLDFNQTQPER-biotin
How it was run: as §1

[27] = molecular target: T27, FX activation peptide 12-mer LLDFNQTQPERG (human)
T27 peptide: LLDFNQTQPERG-biotin
How it was run: as §1

[28] = molecular target: T28, FX activation peptide 12-mer LDFNQTQPERGD (human)
T28 peptide: LDFNQTQPERGD-biotin
How it was run: as §1

[29] = molecular target: T29, FX activation peptide 12-mer DFNQTQPERGDN (human)
T29 peptide: DFNQTQPERGDN-biotin
How it was run: as §1

[30] = molecular target: T30, FX activation peptide 12-mer FNQTQPERGDNN (human)
T30 peptide: FNQTQPERGDNN-biotin
How it was run: as §1

[31] = molecular target: T31, FX activation peptide 12-mer NQTQPERGDNNL (human)
T31 peptide: NQTQPERGDNNL-biotin
How it was run: as §1

[32] = molecular target: T32, FX activation peptide 12-mer QTQPERGDNNLT (human)
T32 peptide: QTQPERGDNNLT-biotin
How it was run: as §1

[33] = molecular target: T33, FX activation peptide 12-mer TQPERGDNNLTR (human)
T33 peptide: TQPERGDNNLTR-biotin
How it was run: as §1

ELISA signal relative to background [1]: 0.74 | binding result [1]: no binding (tested: 2 µg/mL) | ELISA signal relative to background [2]: 0.88 | binding result [2]: no binding (tested: 2 µg/mL) | ELISA signal relative to background [3]: 0.79 | binding result [3]: no binding (tested: 2 µg/mL) | ELISA signal relative to background [4]: 0.82 | binding result [4]: no binding (tested: 2 µg/mL) | ELISA signal relative to background [5]: 0.82 | binding result [5]: no binding (tested: 2 µg/mL) | ELISA signal relative to background [6]: 0.71 | binding result [6]: no binding (tested: 2 µg/mL) | ELISA signal relative to background [7]: 0.76 | binding result [7]: no binding (tested: 2 µg/mL) | ELISA signal relative to background [8]: 0.94 | binding result [8]: no binding (tested: 2 µg/mL) | ELISA signal relative to background [9]: 0.76 | binding result [9]: no binding (tested: 2 µg/mL) | ELISA signal relative to background [10]: 0.74 | binding result [10]: no binding (tested: 2 µg/mL) | ELISA signal relative to background [11]: 0.79 | binding result [11]: no binding (tested: 2 µg/mL) | ELISA signal relative to background [12]: 0.71 | binding result [12]: no binding (tested: 2 µg/mL) | ELISA signal relative to background [13]: 0.74 | binding result [13]: no binding (tested: 2 µg/mL) | ELISA signal relative to background [14]: 0.74 | binding result [14]: no binding (tested: 2 µg/mL) | ELISA signal relative to background [15]: 0.79 | binding result [15]: no binding (tested: 2 µg/mL) | ELISA signal relative to background [16]: 0.71 | binding result [16]: no binding (tested: 2 µg/mL) | ELISA signal relative to background [17]: 0.88 | binding result [17]: no binding (tested: 2 µg/mL) | ELISA signal relative to background [18]: 0.79 | binding result [18]: no binding (tested: 2 µg/mL) | ELISA signal relative to background [19]: 0.71 | binding result [19]: no binding (tested: 2 µg/mL) | ELISA signal relative to background [20]: 0.79 | binding result [20]: no binding (tested: 2 µg/mL) | ELISA signal relative to background [21]: 0.91 | binding result [21]: no binding (tested: 2 µg/mL) | ELISA signal relative to background [22]: 1.09 | binding result [22]: no binding (tested: 2 µg/mL) | ELISA signal relative to background [23]: 0.82 | binding result [23]: no binding (tested: 2 µg/mL) | ELISA signal relative to background [24]: 0.94 | binding result [24]: no binding (tested: 2 µg/mL) | ELISA signal relative to background [25]: 0.85 | binding result [25]: no binding (tested: 2 µg/mL) | ELISA signal relative to background [26]: 0.76 | binding result [26]: no binding (tested: 2 µg/mL) | ELISA signal relative to background [27]: 0.79 | binding result [27]: no binding (tested: 2 µg/mL) | ELISA signal relative to background [28]: 0.74 | binding result [28]: no binding (tested: 2 µg/mL) | ELISA signal relative to background [29]: 0.71 | binding result [29]: no binding (tested: 2 µg/mL) | ELISA signal relative to background [30]: 0.71 | binding result [30]: no binding (tested: 2 µg/mL) | ELISA signal relative to background [31]: 0.71 | binding result [31]: no binding (tested: 2 µg/mL) | ELISA signal relative to background [33]: 0.85 | binding result [33]: no binding (tested: 2 µg/mL)
B1: Nb 501A02 (VHH)
VHH: EVQLVESGGGLVQPGGSLRLSCAASGFTFSNYEMSWVRQAPGKGLEWVSDIGSGGGVSTYYADSVKGRFTISRDNAKNTLYLQMNSLKPEDTAMYYCARGWTYGSDGMDYWGKGTLVTVSS
notes: monovalent control Nanobody; also called control Nanobody; not shown: C-terminal FLAG3 and HIS6 tag
ELISA signal relative to background [32]: 0.76 | binding result [32]: no binding (tested: 2 µg/mL)
